Molecular target: SARS-CoV-2 RBD-hFc (SARS-CoV-2)
Assay: Luminex beads

Binder	binding result
mAb10989 (antibody, V domains shown) VH: QVQLVQSGAEVKKPGASVKVSCKASGYIFTGYYMHWVRQAPGQGLEWMGWINPNSGGANYAQKFQGRVTLTRDTSITTVYMELSRLRFDDTAVYYCARGSRYDWNQNNWFDPWGQGTLVTVSS VL: QSALTQPASVSGSPGQSITISCTGTSSDVGTYNYVSWYQQHPGKAPKLMIFDVSNRPSGVSDRFSGSKSGNTASLTISGLQAEDEADYYCSSFTTSSTVVFGGGTKLTVLG	binds
mAb10936 (antibody, V domains shown) VH: QVQLVESGGGVVQPGRSLRLSCAASGFTFRNYGMHWVRQAPGKGLEWVSVIWYDGSNRYYADSVKGRFTISRDTSKNTLYLQMNSLRAEDTAVYYCARDPPITGTTGGDAFDIWGQGTMVTVSS VL: not shown	binds
mAb10966 (antibody, V domains shown) VH: EVQLVESGGGLVQPGGSLRLSCAASGLTVSSNYMSWVRQAPGKGLEWVSVIYSGGSTFYADSVKGRFTISRDNSKNTLYLQMNSLRPEDTAVYYCAREGRIAATGYGMDVWGQGTTVTVSS VL: not shown	binds
mAb10964 (antibody, V domains shown) VH: QVQLQESGPGLVKPSETLSLTCTVSGGSINNYYWIWIRQPPGKGLEWIGYIYHSGSTNYNPSLKSRVTISVDTSKNQFSLKVSSVTAADTAVYYCANMVRGVYEDDYWGQGTLVTVSS VL: DIQMTQSPSSLSASVGDRVTITCRASQSISNYLNWYQQKPGKAPKLLIFAASSLRSGVPSRFSGSGSGTDFTLTISSLHPEDFATYYCQQNYNTPLTFGPGTKVDIKR	binds
mAb10921 (antibody, V domains shown) VH: EVQLVESGGGLVQPGGSLRLSCAASGITVSSNYMSWVRQAPGKGLEWVSVIYSGGSTFYADSVKGRFTISRHNSKNTLYLQMNSLRAEDTAVYYCARERNFDAFDIWGQGTMVTVSS VL: DIQMTQSPSSVSASVGDRVTITCRASQGISSWLAWYQQKPGKAPKLLIYAASSLQSGVPSRFSGSGSGTDFTLTISSLQPEDFATYYCQQANSFPLFTFGPGTKVDIKR	binds
mAb10969 (antibody, V domains shown) VH: QVQLVESGGGVVQPGRSLRLSCAASGFTFSSYAMHWVRQAPGKGLEWVAVISYDGSNKYYADSVKGRFTISRDNSKNTLYLQMNSLRAEDTAVYYCARDGRTITMVRGVIDDAFDIWGQGTMVTVSS VL: not shown	binds
mAb10932 (antibody, V domains shown) VH: EVQLVESGGGLVQSGGSLRLSCAASGLTVSSNYMSWVRQAPGKGLEWVSVIYSGGSTFYSDSVKGRFTISRHNSKNTLYLQMNSLRAEDTAVYYCARARGDAFDIWGQGTMVTVSS VL: not shown	binds
mAb10920 (antibody, V domains shown) VH: QVQLVESGGGVVQPGRSLRLSCAASGFTFSYYGMHWVRQAPGKGLEWVAVIWYDGSNKFYADSVKGRFTISRDNSKNTLYLQMNSLRAEDTAVYYCAAARPGYYYGMDVWGQGTTVTVSS VL: DIQMTQSPSSLSASVGDRVTITCRASQGISNYLAWFQQKPGKAPNSLIYAASSLQRGVPSKFSGSGSGTDFTLTISSLQPEDFATYYCQQYNSYPRTFGQGTKVEIKR	binds
mAb10982 (antibody, V domains shown) VH: EVQLVESGGGLVQPGGSLRLSCAASGLTVSSNYMSWVRQAPGKGLEWVSVIYSGGTTYYADSVKGRFTISRHNSKNTLSLQMNSLRAEDTAVYYCARGEGANYYGMDVWGQGTTVTVSS VL: QSVLTQPPSVSGAPGQRVTISCTGSSSNIGTGYDVHWYQQLPGTAPKLLIYGNSNRPSGVPDRFSGSKSGTSASLAITGLQAEDEADYYCQSYDSSLSGYVVFGGGTKLTVLG	binds
mAb10985 (antibody, V domains shown) VH: EVQLVESGGGLVQPGRSLRLSCAASGFTFDDYAMHWVRQAPGKGLEWVSGISWNRGSIGYADSVKGRFTISRDNAKNSLYLQMSSLRAEDTALYYCAKDGERWDSVVVPSARNGMDVWGQGTTVTVSS VL: QSVLTQPPSVSGAPGQRVTISCTGSSSNIGAGYDVHWYQQLPGTAPKLLIYGNSNRPSGVPDRFSGSKSGTSASLAITGLQAEDEADYYCQSYDSSLSGSYVFGTGTKVTVLG	binds
mAb10986 (antibody, V domains shown) VH: EVQLVESGGGLVQPGGSLRLSCAASEFTVSSNYMSWVRQAPGKGLEWVSVIYSGGSTFYADSVKGRFTISRDNSKNTLYLQMNSLRAEDTAVYYCARALPYGDLHFDYWGQGTLVTVSS VL: QSVLTQPPSVSGAPGQRVTISCTGSSSNIGTGYDVHWYQQLPGTAPKLLIYGNTNRPSGVPDRFSGSKSGTSASLAITGLQAEDEADYYCQSYDSSLSDSYVFGTGTKVTVLG	binds
mAb10984 (antibody, V domains shown) VH: EVQLVESGGGLVQPGGSLRLSCAASGLTVNRNYMSWVRQAPGKGLEWVSLIYSGGSTYYADSVKGRFTISRDNSKNTLYLQMNSLRLEDTAVYYCARGELGIPYGMDVWGQGTTVTVSS VL: QSVLTQPPSVSAAPGQKVTISCSGSSSNIGNNYVSWYQQLPGTAPKLLIYDNNKRPSGIPDRFSGSKSGTSATLGITGLQTGDEADYYCGTWDSSLSAGVFGGGTKLTVLG	binds
mAb10939 (antibody, V domains shown) VH: EVQLVESGGGLVQPGGSLRLSCAASGLTVSSNYMNWVRQVPGKGLEWVSVIYSGGSKFYVDSVKGRFTISRHNSKNTLYLQMNSLRPEDTAVYYCTRDAQYYGMDVWGQGTTVTVSS VL: DIQMTQSPSSLSASVGDRVTITCRASQSISTYLHWYQQKPGEAPKLLIYAASSLQSGVPSRFSGSGSGTDFTLTISSLQPEDFATYYCQQSYSTPPEIFGQGTKLEIKR	binds
mAb10956 (antibody, V domains shown) VH: EVQLVESGGGLVQPGGSLRLSCAASGLTVSSNYMSWVRQAPGKGLEWVSVIYSGGSTFYADSVKGRFTISRDNSKNTLYLQMNSLRAEDTAVYYCARDLIKYGMDVWGQGTTVTVSS VL: not shown	binds
mAb10937 (antibody, V domains shown) VH: QITLKESGPTLVKPTQTLTLTCTFSGFSLSTNVVGVGWIRQPPGKALEWLALIYWNDDKRYSPSLKSRLTITKDTSKNQVVLTMTNMDPVDTATYYCAHGPTGDYFDYWGQGTLVTVSS VL: not shown	binds
mAb10923 (antibody, V domains shown) VH: QVQLVQSGAEVKKPGASVKVSCKASGYTFINYYIHWVRQAPGQGLEWMGWINPNSGGTNYAQKFQGRVTMTRDTSISTAYMELSRLRSDDTAVYYCAIITIFGVVTWFDPWGQGTLVTVSS VL: not shown	binds
mAb10934 (antibody, V domains shown) VH: not shown VL: DIQMTQSPSSLSASVGDRVTITCQASQDIWNYINWYQQKPGKAPKLLIYDASNLKTGVPSRFSGSGSGTDFTFTISSLQPEDIATYYCQQHDDLPPTFGQGTKVEIKR	binds
mAb10935 (antibody, V domains shown) VH: EVQLVESGGGLVQPGGSLRLSCAASGFTVSSNYMSWVRQAPGKGLEWVSLIYSGGSTYYADSVKGRFTISRHNSKNTLYLQMNSLRSEDTAVYYCARVPLGDYYYGMDVWGQGTTVTVSS VL: DIQMTQSPSSLSASVGDRVTITCQASQDINKYLNWYQQKPGKAPKLLIYDASNLETGVPSRFSGSGSGTDFTFTISSLQPEDIATYYCQQSDNLPLTFGGGTKVEIKR	binds
mAb10954 (antibody, V domains shown) VH: EVQLVESGGGLVQPGGSLRLSCAASGITVSSNYMSWVRQAPGKGLEWVSLIYSGGSTYYADSVKGRFTISRDNSKNTLYLQMNSLRVEDTAVYYCARDHGMAAAGYNYWGQGTLVTVSS VL: DIQMTQSPSSLSASVGDRVTITCQASQDINKYLNWYQQKPGKAPKLLIYDASNLETGVPSRFSGSGSGTDFTFTINSLQPEDFATYFCQQYDNLPPAFGQGTKVEIKR	binds
mAb10955 (antibody, V domains shown) VH: EVQLVESGGGLVQPGGSLRVSCAASGFTVSRNYMSWVRQAPGKGLEWVSVIYSGGSTFYADSVKGRFTISRDNSKNTLYLQMNSLRAEDTAIYYCARYIPRFDPWGQGTLVTVSS VL: DIQMTQSPSSLSASVGDRVTITCQASQDISNYLNWFQQKPGRAPKLLIYDASNLETGVPSRFSGSGSGTDFTFTISSLQPEDIATYYCQQYDNLPITFGQGTRLEIKR	binds
mAb10967 (antibody, V domains shown) VH: EVQLVESGGGLVQPGGSLRLSCAASGFTVSSNYMSWVRQAPGKGLEWVSVIYPGGSTFYADSVKGRFTISRDNSKNTLYLQMNSLRAEDTAVYYCARDQRDFAWGQGTLVTVSS VL: DIQMTQSPSSLSASVGDRVTITCQASQDISNYLNWYQQKPGKAPKLLIYDASNLETGVPSRFSGSGSGTDFTFTISGLQPEDIATYYCQQYDNLPPTFGQGTRLEIKR	binds
mAb10938 (antibody, V domains shown) VH: EVQLVESGGGLVQPGGSLRLSCAVSGFTVSSNYMSWVRQAPGKGLEWVSLIYSGGSTFYADSVKGRFTISRHNSKNTLYLQMNSLRAEDTAVYYCAREGGYSYDYNYWGQGTLVTVSS VL: DIQMTQSPSSLSASVGDRVTITCQASQDIRNYLNWYQQKPGKAPKLLIYDASNLETGVPSRFSGIGSGTDFTFTISSLQPEDIATYYCQQYDNLPITFGQGTRLEIKR	binds
mAb10915 (antibody, V domains shown) VH: EVQLVESGGGLVQPGGSLRLSCAASGFTVSSNYMNWVRQAPGKGLEWVSVIYSGGSTFYADSVKGRFTISRHNSKNTLYLQMNSLRPEDTAVYYCARDLGGYFDYWGQGTLVTVSS VL: not shown	binds
mAb10930 (antibody, V domains shown) VH: EVQLVESGGGLVQPGRSLRLSCAASGFTFDDYAMYWVRQAPGKGLEWVSGISWNSGSIGYADSVKGRFTISRDNAKNSLYLQMNSLRAADTALYYCAKDKDWNSRGYYYYGMDVWGQGTTVTVSS VL: not shown	binds
mAb10965 (antibody, V domains shown) VH: EVQLVESGGGLIQPGGSLRLSCAASVFTVSYNYMSWVRQAPGKGLEWVSVIYSGGSTYYADSVKGRFTISRDNSKNTLYLQMNSLRAEDTAVYYCARALPGWGGSFEYFDYWGQGTLVTVSS VL: not shown	binds
mAb10971 (antibody, V domains shown) VH: EVQLVESGGGLIQPGGSLRLSCAASGVTVSSNYMSWVRQAPGKGLEWVSVIYSGGSTFYSDSVKGRFSISRDNSKNTLYLQMNSLRAEDTAVYYCARDLYYYGMDVWGQGTTVTVSS VL: DIQLTQSPSFLSASVGDRVTITCRASQGISTYLAWYQQKPGKAPKLLIYAASTLQSGVPSRFSGSGSGTEFTLTISSLQPEDFATYYCQQLDSYPGLTFGGGTKVEIKR	binds
